Data on 2 molecules can be found in patent publication US20260209291A1 (KAMINO, published 2026).

In assay [1] the target is T1, vimentin (endogenous, in mouse gastrocnemius muscle connective tissue cells) (mouse, UniProt P20152 2-466).
T1 construct: whole, on cells; Intracellular filament protein, inside the cells and not on their surface
Nature of the assay: confocal imaging of sections of mouse gastrocnemius muscle 18 hours after intramuscular injection of 8 µg ATTO 488 labelled compound; the filing reads the filaments as vimentin; no vimentin co-stain on the sheet. How it is done: (§1) After labeling, compound concentration was determined using the Pierce Coomassie (Bradford) Protein Assay Kit (Thermo Scientific, #23200).
Two 12-week-old female BALB/c mice were allocated for injection with either anti-vimentin-nanobody-FSD1 (type 1 compound, n=1) or anti-vimentin-nanobody (n=1). During anaesthesia, the right hind limb was shaved to expose the calf muscles. A single dose of 8 μg, fluorescently labeled compound was administered intramuscularly in a volume of 5 μl in the gastrocnemius muscle. Mice received a subcutaneous injection of pain relief (Carprofen 5 mg/kg) to counter any pain resulting from tension in the muscle. Eighteen hours after injection, the gastrocnemius muscle was dissected and immersion-fixed in 4% formaldehyde. The gastrocnemius muscle was ethanol dehydrated, embedded in paraffin, and sectioned at 4 μm thickness using a microtome. Sections were left unstained and mounted with DAPI containing mountant (#P36962, ProLong Diamond Antifade Mountant with DAPI) on microscope slides. […] DAPI was excited using a 405 nm diode laser at 1.00% and detected at wavelengths […]. For each sample, a Z-stack was recorded with an interval of 0.190 μm. […]

For assay [2], the target named is T2, vimentin (endogenous, in HEK293 cells) (human (HEK293 cells), UniProt P08670 2-466).
T2 construct: whole, on cells; Intracellular filament protein, inside the cells and not on their surface
Nature of the assay: confocal imaging of adherent HEK293 cells after 18 hours with 1 µM ATTO 488 labelled compound; the filing reads the filaments as vimentin; no vimentin co-stain on the sheet. The method, then: as §1
Briefly, HEK293 cells were seeded on a cover slip glass (Thorlabs, #CG15NH) treated with poly-D-lysine (ThermoFisher, #A3890401) to promote adhesion. Cells were seeded in DMEM (ThermoFisher, #11995073) supplemented with 10% fetal bovine serum (FBS). After 24 hours, cells were washed with PBS and compounds (1 μM) were added in 100% DMEM without FBS. A control sample using 100% DMEM without added compound was also included. After 3 hours and 18 hours of incubation, cells were washed 3 times with PBS. […] Cells were then washed 3 times with PBS and fixed using 4% formalin for 30 minutes. Cover slips were mounted using ProLong Glass Antifade Mountant (ThermoFisher, #P36980). Confocal imaging was conducted using a Zeiss LSM800 laser scanning confocal microscope (Carl Zeiss Microscopy GmbH, Oberkochen, Germany) equipped with 2 GaAsP and one Airyscan detector and Zen Blue Edition software (Carl Zeiss Microscopy GmbH, version 2.5). Confocal images were taken with the PlanApo x63 Oil NA 1.4 objective. […] Lysotracker Red DND-99 was excited using a 561 nm diode laser at 2.60% (both 3-hour and 18-hour samples) and detected at wavelengths 575-700 nm. For each sample, a Z-stack was recorded with an interval of 0.270 μm (3-hour samples) or 0.170 μm (18-hour samples). […]

Assay [3] concerns the target VEGF (Vascular Endothelial Growth Factor) (UniProt P15692-4 27-191). Nature of the assay: SPR (Biacore 3000, 25 °C): compound captured to about 1,000 RU on a CM5 chip with the mouse antibody capture kit, VEGF injected for 120 s, 300 s dissociation; negative control. The method, then: (§2) Surface plasmon resonance (SPR) experiments were carried out on a Biacore 3000 (Cytiva). A CM5 chip for capture of the compounds was prepared according to the instructions of the mouse antibody capture kit (Cytiva, #BR100838). VGFR(½)-mFc-FSD1, TNFR2-mFc-FSD1, VGFR(½)/FST291-mFc, TNFR2/FST291-mFc, VGFR(½)-hFc (Aflibercept), TNFR2-hFc (Etanercept), and FST315dHBS-mFc (SEQ ID NO: 30, SEQ ID NO: 31) were captured to approximately 1,000 RU (Resonance Units). TNFα (R&D Systems, #210-TA-005,) or VEGF (R&D Systems, #293-VE-010) were then injected for 120 s followed by a 300 s dissociation phase. At the end of each binding cycle, non-covalently attached molecules were removed from both surfaces by a 180 s regeneration with 10 mM glycine, pH 1.7. All proteins were diluted in running buffer ([…], pH 7.5, […], 2 mM CaCl₂) and 0.05% Tween 20). A flow rate of 30 μl/min was used in all steps of the experiments. Binding analysis was performed at 25° C., and data were collected at a rate of 1 Hz. Using the BIAevaluation 4.1.1 software (Cytiva), recorded signals were referenced; the signal from the in-line reference flow cell was subtracted as was the signal from a blank run (0 nM analyte).

A further assay concerns the target T3, activin A (human, UniProt P08476 311-426).
T3 sequence: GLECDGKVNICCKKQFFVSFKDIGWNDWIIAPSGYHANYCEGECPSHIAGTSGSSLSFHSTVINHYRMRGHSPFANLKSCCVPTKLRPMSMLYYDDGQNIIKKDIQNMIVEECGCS
Nature of the assay: cell-based or functional assay.

The target in assay [4] is T4, GDF11 (Growth Differentiation Factor 11) (Homo sapiens (Human), UniProt O95390 299-407).
T4 sequence: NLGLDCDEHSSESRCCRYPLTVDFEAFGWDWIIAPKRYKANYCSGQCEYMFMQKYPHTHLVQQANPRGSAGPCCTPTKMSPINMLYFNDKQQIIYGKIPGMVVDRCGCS
Nature of the assay: cell-based or functional assay.

For a further assay, the target named is T5, myostatin (Homo sapiens (Human), UniProt O14793 267-375).
T5 sequence: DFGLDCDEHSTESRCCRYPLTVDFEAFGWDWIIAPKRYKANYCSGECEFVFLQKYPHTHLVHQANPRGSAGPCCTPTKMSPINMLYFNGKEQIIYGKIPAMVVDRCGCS
Nature of the assay: cell-based or functional assay.

The target in assay [5] is TNFα (Tumor Necrosis Factor alpha) (UniProt P01375 77-233). Nature of the assay: SPR (Biacore 3000, 25 °C): compound captured to about 1,000 RU on a CM5 chip with the mouse antibody capture kit, TNFα injected for 120 s, 300 s dissociation; negative control. The method, then: as §2
Chain of TNFα (Tumor Necrosis Factor alpha) (P01375 77-233 limits assumed): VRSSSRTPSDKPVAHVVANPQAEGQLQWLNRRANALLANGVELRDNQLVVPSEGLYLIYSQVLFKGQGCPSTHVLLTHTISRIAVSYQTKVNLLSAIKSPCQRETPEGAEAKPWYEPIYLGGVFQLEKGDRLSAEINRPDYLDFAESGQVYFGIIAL

Chain of VEGF (Vascular Endothelial Growth Factor) (P15692 other isoform, or with tags, fused parts or gaps limits assumed): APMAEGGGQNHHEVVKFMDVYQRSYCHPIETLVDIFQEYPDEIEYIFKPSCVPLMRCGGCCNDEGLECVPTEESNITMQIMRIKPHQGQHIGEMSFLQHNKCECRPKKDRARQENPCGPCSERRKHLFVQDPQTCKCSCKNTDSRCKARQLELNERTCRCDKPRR
T1 sequence (P20152 2-466): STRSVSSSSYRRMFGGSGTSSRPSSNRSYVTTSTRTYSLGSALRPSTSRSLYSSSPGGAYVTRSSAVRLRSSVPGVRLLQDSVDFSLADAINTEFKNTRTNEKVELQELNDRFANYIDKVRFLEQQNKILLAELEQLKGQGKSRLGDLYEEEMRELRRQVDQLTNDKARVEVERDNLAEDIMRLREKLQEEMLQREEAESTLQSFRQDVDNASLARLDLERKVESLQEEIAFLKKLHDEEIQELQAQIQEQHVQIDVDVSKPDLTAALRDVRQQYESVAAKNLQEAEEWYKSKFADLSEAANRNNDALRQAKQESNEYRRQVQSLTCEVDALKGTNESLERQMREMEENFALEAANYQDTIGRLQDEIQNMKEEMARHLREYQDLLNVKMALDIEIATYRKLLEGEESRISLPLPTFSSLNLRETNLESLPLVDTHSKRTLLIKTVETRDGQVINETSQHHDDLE
T2 sequence (P08670 2-466): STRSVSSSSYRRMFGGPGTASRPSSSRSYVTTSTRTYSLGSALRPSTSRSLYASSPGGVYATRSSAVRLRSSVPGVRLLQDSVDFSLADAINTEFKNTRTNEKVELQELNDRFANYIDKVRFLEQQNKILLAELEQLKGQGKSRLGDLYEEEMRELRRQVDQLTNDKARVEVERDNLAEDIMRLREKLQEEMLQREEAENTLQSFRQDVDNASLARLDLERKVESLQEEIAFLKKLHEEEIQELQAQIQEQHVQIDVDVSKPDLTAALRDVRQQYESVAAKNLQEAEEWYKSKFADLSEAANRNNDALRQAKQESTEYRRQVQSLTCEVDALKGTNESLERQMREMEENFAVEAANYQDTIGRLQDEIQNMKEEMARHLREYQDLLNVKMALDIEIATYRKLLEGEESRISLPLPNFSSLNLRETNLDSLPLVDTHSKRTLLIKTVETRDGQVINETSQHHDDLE

B1: anti-vimentin-nanobody-FSD1 (VHH)
VHH: QVQLVESGGGLVQSGGSLTLTCAASGFTFSAASMRWVRQVPGKGLEWVATIDGTGANSYYSESAKGRFTISRDNARNTLYLQMNNLKPDDTAVYYCANFGRNYWGKGTQVTVSS
modifications: ATTO 488 fluorescent label, sites not stated
notes: also called anti-vimentin-nb-FSD1; type 1 design compound
As for B1, the binding result in assay [1] and in assay [2] was “binds” throughout.

B2: FST315dHBS-mFc (Fc fusion)
chain: GNCWLRQAKNGRCQVLYKTELSKEECCSTGRLSTSWTEEDVNDNTLFKWMIFNGGAPNCIPCKETCENVDCGPGSTCVVDQTNNPRCVCAPDCSNITWKGPVCGLDGKTYRNECALLKARCKEQPELEVQYQGRCKKTCRDVFCPGSSTCVVDQTNNAYCVTCNRICPEPASSEQYLCGNDGVTYSSACHLRKATCLLGRSIGLAYEGKCIKAKSCEDIQCTGGKKCLWDFKVGRGRCSLCDELCPDSKSDEPVCASDNATYASECAMKEAACSSGVLLEVKHSGSCNSISEDTEEEEEDEDQDYSFPISSILEWPRGPTIKPCPPCKCPAPNLLGGPSVFIFPPKIKDVLMISLSPIVTCVVVDVSEDDPDVQISWFVNNVEVHTAQTQTHREDYNSTLRVVSALPIQHQDWMSGKEFKCKVNNKDLPAPIERTISKPKGSVRAPQVYVLPPPEEEMTKKQVTLTCMVTDFMPEDIYVEWTNNGKTELNYKNTEPVLDSDGSYFMYSKLRVEKKNWVERNSYSCSVVHEGLHNHHTTKSFSRTPGK
B2: the figures for the binding result in assay [3] and in assay [5] were “no binding (tested: 25 nM VEGF)” and “no binding (tested: 50 nM TNFα)”, respectively. Besides, the “IC50, neutralisation of 1 ng/mL activin A (pSmad2/3 luciferase reporter, HEK293 cells)” value with activin A came out at 47 pM. In assay [4], the “IC50, neutralisation of 1 ng/mL GDF11 (pSmad2/3 luciferase reporter, HEK293 cells)” value amounted to 205 pM. For the same molecule, the “IC50, neutralisation of 1 ng/mL myostatin (pSmad2/3 luciferase reporter, HEK293 cells)” value in the assay with myostatin was found to be 225 pM.
